Patent publication US20250066503A1, “CELL INJURY INDUCING THERAPEUTIC DRUG FOR USE IN CANCER THERAPY” (CHUGAI SEIYAKU KABUSHIKI KAISHA, priority 2016, published 2025)
Positions count from the first letter of the chain named.

B1: H0000/GL4 single-arm antibody (antibody, human IgG1, V domains shown)
VH: QVQLVQSGAEVKKPGASVKVSCKASGYTFTDYEMHWIRQPPGQGLEWIGAIDPKTGDTAYSQKFKGRVTLTADKSTSTAYMELSSLTSEDTAVYYCTRFYSYTYWGQGTLVTVSS
VL: DIVMTQSPLSLPVTPGEPASISCRSSQSLVHSNRNTYLHWYQQKPGQAPRLLIYKVSNRFSGVPDRFSGSGSGTDFTLKISRVEAEDVGVYYCSQNTHVPPTFGQGTKLEIK
notes: single Fab on human IgG1 Fc heterodimerized by knobs-into-hole
B2: hCE115HA/L0000 single-arm antibody (antibody, human IgG1, V domains shown)
VH: QVQLVESGGGVVQPGRSLRLSCAASGFTFSNAWMHWVRQAPGKGLEWVAQIKAKSNNYATYYAESVKGRFTISRDDSKNSLYLQMNSLKTEDTAVYYCRYVHYGAYYGVDAWGQGTTVTVSS
VL: B1 VL with S94G, N96G, H98Q, P101Y
notes: as for B1
B3: GCH065-G1dh/none-Hi-Kn010G3/L0011-k0 (antibody, V domains shown)
VH: B1 VH with K19T, Q43E, P53G, K54P, G56P, Q62E
VL: DIVMTQSPLSLPVTPGEPASISCRSSQPLVHSNRNTYLHWYQQKPGQAPRLLIYKVSNRFSGVPDRFSGSGSGTDFTLKISRVEAEDVGVYYCGQGTQVPYTFGQGTKLEIKR
notes: one-arm
B4: H0000/L0000 single-arm antibody (antibody, human IgG1, V domains shown)
VH: B1 VH
VL: B1 VL with S94G, N96G, H98Q, P101Y
notes: as for B1
B5: GCH054-G1dh/none-Hi-Kn010G3/L0011-k0 (antibody, V domains shown)
VH: B1 VH with K19T, Q43E, P53G, K54E, G56P, Q62E
VL: B3 VL
notes: one-arm
B6: H0610-G1dh/none-Hi-Kn010G3/L0000-k0 (antibody, V domains shown)
VH: B1 VH with P53G, G56P
VL: B3 VL with P28S
notes: one-arm
B7: GCH094-G1dh/none-Hi-Kn010G3/L0011-k0 (antibody, V domains shown)
VH: B1 VH with K19T, I37V, P40A, Q43E, I48M, P53G, K54E, G56P, Q62E
VL: B3 VL
notes: one-arm
B8: antibody-30: optimized anti-human CD3ε chain and anti-human GPC3 bispecific antibody (antibody)
heavy 1: QVQLVESGGGLVQPGRSLRLSCAASGFTFSNAWMHWVRQAPGKGLEWVAQIKDKSQNYATYYAESVKGRFTISRDDSKNSLYLQMNSLKTEDTAVYYCRYVHYAAGYGVDAWGQGTTVTVSSASTKGPSVFPLAPCSRSTSESTAALGCLVKDYFPEPVTVSWNSGALTSGVHTFPAVLQSSGLYSLSSVVTVPSSSLGTKTYTCNVDHKPSNTKVDKRVESKYGPPCPPCPAPEFRGGPKVFLFPPKPKDTLMISRTPEVTCVVVDVSQEDPEVQFNWYVDGVEVHNAKTKPREEQFASTYRVVSVLTVLHQDWLNGKEYKCKVSNKGLPSSIEKTISKAKGQPREPQVYTLPPSQKEMTKNQVSLTCLVKGFYPSDIAVEWESNGQPENNYKTTPPVLDSDGSFFLYSKLTVDKSRWQEGNVFSCSVMHEALHNRYTQKSLSLSP
heavy 2: QVQLVQSGAEVKKPGASVTVSCKASGYTFTDYEMHWVRQAPGEGLEWMGAIDGETPDTAYSEKFKGRVTLTADKSTSTAYMELSSLTSEDTAVYYCTRFYSYTYWGQGTLVTVSSASTKGPSVFPLAPCSRSTSESTAALGCLVKDYFPEPVTVSWNSGALTSGVHTFPAVLQSSGLYSLSSVVTVPSSSLGTQTYTCNVDHKPSNTKVDKRVESKYGPPCPPCPAPEFRGGPKVFLFPPKPKDTLMISRTPEVTCVVVDVSQEDPEVQFNWYVDGVEVHNAKTKPREEQFASTYRVVSVLTVLHQDWLNGKEYKCKVSNKGLPSSIEKTISKAKGQPREPQVYTLPPSQEEMTKNQVSLTCLVKGFYPSDIAVEWESNGQPENNYKTTPPVLDSDGSFFLYSKLTVDKSRWQEGNVFSCSVMHEALHNHYTQESLSLSP
light: DIVMTQSPLSLPVTPGEPASISCRSSQPLVHSNRNTYLHWYQQKPGQAPRLLIYKVSNRFSGVPDRFSGSGSGTDFTLKISRVEAEDVGVYYCGQGTQVPYTFGQGTKLEIKRTVAAPSVFIFPPSDEQLKSGTASVVCLLNNFYPREAKVQWKVDNALQSGNSQESVTEQDSKDSTYSLSSTLTLSKADYEKHKVYACEVTHQGLSSPVTKSFNRGEC
B9: antibody-33: optimized anti-human CD3ε chain and anti-human GPC3 bispecific antibody (antibody)
heavy 1: B8 heavy 1
heavy 2: B8 heavy 2 with V37I, A40P, M48I, E54P
light: B8 light
B10: antibody-32: optimized anti-human CD3ε chain and anti-human GPC3 bispecific antibody (antibody)
heavy 1: B8 heavy 1 with L11V, R16G, D75A, L81I, A111I
heavy 2: B8 heavy 2 with V37I, A40P, M48I, E54P
light: B8 light
B11: antibody-31: optimized anti-human CD3ε chain and anti-human GPC3 bispecific antibody (antibody)
heavy 1: B8 heavy 1 with L11V, R16G, D75A, L81I, A111I
heavy 2: B8 heavy 2
light: B8 light

What was measured:
human GPC3 [1] = molecular target: T1, human GPC3 (human, UniProt P51654 25-563); assay: SPR, antibody captured by Protein A/G
T1 construct: range 25-563; soluble analyte; also called soluble human GPC3; glypican 3
Method: The activity to bind human GPC3 when using GL4 (SEQ ID NO: 41) and L0000 (SEQ ID NO: 53) as the L-chain variable regions was evaluated. This was performed using the molecular form of a single-arm antibody having a single Fab at the Fc region of a human IgG1 heterodimerized by the knobs-into-hole technique. H0000 (SEQ ID NO: 40) was used for the anti-GPC3 antibody H-chain variable region.
The affinity and binding rate constants of an anti-GPC3 antibody for an antigen were measured by the multi-cycle kinetics method of a surface plasmon resonance assay using Biacore™-T200 (GE Healthcare Japan). HBS-EP+(GE Healthcare Japan) was used for the running buffer, and an amine coupling kit (GE Healthcare Japan) was used to covalently bind Protein A/G to the CM5 chip (carboxymethyl dextran-coated chip). […] Measurements were carried out by first allowing Protein A/G to capture the antibody solution, and then injecting the human GPC3 solution at a flow rate of […] for three minutes to allow reaction to take place. Then, the solution was switched to HBS-EP+ and the dissociation phase was measured for 15 minutes. After completion of the dissociation phase measurement, the sensor chip was regenerated by washing with 10 mM Gly-HCl at pH 1.5. Measurement at the concentration of 0 was similarly carried out by allowing Protein A/G to capture the antibody solution, performing a three-minute HBS-EP+ injection to allow reaction to take place, and then switching to HBS-EP+ to measure the dissociation phase for 15 minutes. After completion of the dissociation phase measurement, the sensor chip was regenerated by washing with 10 mM Gly-HCl at pH 1.5. A data analysis software exclusively for Biacore, Biacore T200 Evaluation Software Version 1.0, was used to perform kinetic analyses to calculate the binding rate constant (ka), dissociation rate constant (kd), and the rate constant ratio from the obtained sensorgrams.

[2] = molecular target: T2, soluble human CD3 epsilon chain (human, UniProt P07766 23-126); assay: SPR, human CD3 on the chip
T2 construct: also called CD3ε
Method: The activity to bind human CD3 when using hCE115HA (SEQ ID NO: 52) as the H chain variable region and L0000 (SEQ ID NO: 53) as the L-chain variable region was evaluated. This was performed using the molecular form of a single-arm antibody having a single Fab at the Fc region of a human IgG1 heterodimerized by the knobs-into-hole technique.
The affinity and binding rate constants of an anti-CD3 antibody for an antigen were measured by the single-cycle kinetics method of a surface plasmon resonance assay using Biacore™-T200 (GE Healthcare Japan). HBS-EP+(GE Healthcare Japan) was used for the running buffer, and an amine coupling kit (GE Healthcare Japan) was used to covalently bind human CD3 to the CM4 chip (carboxymethyl dextran-coated chip). The anti-CD3 antibody used as the analyte was prepared at 5 and […] using HBS-EP+. Measurements were carried out by first injecting each of the 5- and 20-g/mL anti-CD3 antibody solutions for three minutes continuously at a flow rate of 20 L/min to allow reaction to take place. Then, the solution was switched to HBS-EP+ and the dissociation phase was measured for 3 minutes. After completion of the dissociation phase measurement, the sensor chip was regenerated by washing with 10 mM Gly-HCl at pH 1.5. Measurement at the concentration of 0 was carried out by performing each of the three-minute HBS-EP+ injections twice successively to allow reaction to take place, and then switching to HBS-EP+ to measure the dissociation phase for 3 minutes. After completion of the dissociation phase measurement, the sensor chip was regenerated by washing with 10 mM Gly-HCl at pH 1.5. A data analysis software exclusively for Biacore, Biacore T200 Evaluation Software Version 1.0, was used to perform kinetic analyses to calculate the binding rate constant (ka), dissociation rate constant (kd), and the rate constant ratio from the obtained sensorgrams.

human GPC3 [3] = molecular target: T1, human GPC3; assay: SPR, single-arm antibody
human GPC3 [4] = molecular target: T1, human GPC3; assay: SPR
[5] = test system: SK-HEP-1/hGPC3 (SK-pca31a) xenograft tumor; assay: In vivo drug efficacy, NOD scid/T cell-injected model, SK-pca31a; set-up: species or system NOD scid mice; conditions: 5 mg/kg once through the tail vein, compared to the vehicle-administered group
Method: Methods called an NOD scid/T cell-injected model, a humanized NOG mouse model, and a human CD3εδγ gene-modified mouse model were used in the in vivo drug efficacy evaluation. Assay using an NOD scid/T cell-injected model was performed as follows. […] T cells expanded by culturing human PBMCs in vitro were injected into the NOD scid mice with confirmed tumor establishment. The mice were treated by administering bispecific antibody-38 and bispecific antibody-30, -31, -32, or -33. Assay using a humanized NOG mouse model was performed as follows. CD34-positive hematopoietic stem cells derived from umbilical cord blood were transplanted into NOG mice by tail vein injection. Human T cells are constantly supplied in the mice, which are called humanized NOG mice. The PC-10 cell line was transplanted into humanized NOG mice. The humanized NOG mice with confirmed establishment of PC-10 tumor were treated by administering antibody-38. Assay using a human CD3εδγ gene-modified mouse model was performed as follows. Cells of mouse-derived cell line forced to express human GPC3 were transplanted into a human CD3εδγ gene-modified mouse model, which had been prepared according to Reference Example 10. The human CD3εδγ gene-modified mice with confirmed tumor establishment were treated by administering antibody-38.
The drug efficacy evaluation studies for bispecific antibody-38, and bispecific antibody-30, -31, -32, and -33 in NOD scid/T cell-injected model were performed as follows. T cell expansion culture was performed using PBMCs separated from blood collected from a healthy person and T cell activation/expansion kit/human. Each of human cancer cell lines (MKN74, FU-97, SNU-1, SCC152, KYSE70, PC-10, HuH-7, TOV-21G, RMG-1, and SK-pca31a (SK-HEP-1/hGPC3)) was mixed with Matrigel™ Basement Membrane Matrix, and transplanted subcutaneously into NOD scid mice (CLEA Japan). An in vivo-passaged line (STM-03) was transplanted as about 2-mm tumor tissue cubes subcutaneously into NOD scid mice (CLEA Japan). The day of transplantation was defined as Day 0. On the day before transplantation, anti-asialo GM1 antibody (Wako Pure Chemical Industries) was administered intraperitoneally at 0.2 mg/mouse. When tumor was clearly established after transplantation, the mice were separated into groups based on tumor size and body weight. Then, anti-asialo GM1 antibody was administered intraperitoneally at 0.2 mg/mouse again. On the following day, T cells obtained by the aforementioned expansion culture were transplanted intraperitoneally at 1.5×10^7 to 3×10^7 cells/mouse. About two to five hours after T cell transplantation, antibody-38 was administered at 1 mg/kg (MKN74, FU-97, SNU-1, SCC152, KYSE70, PC-10, HuH-7, TOV-21G, RMG-1, and STM-03) through the tail vein. The administration was performed only once. […]

T1 sequence (P51654 25-563 limits assumed): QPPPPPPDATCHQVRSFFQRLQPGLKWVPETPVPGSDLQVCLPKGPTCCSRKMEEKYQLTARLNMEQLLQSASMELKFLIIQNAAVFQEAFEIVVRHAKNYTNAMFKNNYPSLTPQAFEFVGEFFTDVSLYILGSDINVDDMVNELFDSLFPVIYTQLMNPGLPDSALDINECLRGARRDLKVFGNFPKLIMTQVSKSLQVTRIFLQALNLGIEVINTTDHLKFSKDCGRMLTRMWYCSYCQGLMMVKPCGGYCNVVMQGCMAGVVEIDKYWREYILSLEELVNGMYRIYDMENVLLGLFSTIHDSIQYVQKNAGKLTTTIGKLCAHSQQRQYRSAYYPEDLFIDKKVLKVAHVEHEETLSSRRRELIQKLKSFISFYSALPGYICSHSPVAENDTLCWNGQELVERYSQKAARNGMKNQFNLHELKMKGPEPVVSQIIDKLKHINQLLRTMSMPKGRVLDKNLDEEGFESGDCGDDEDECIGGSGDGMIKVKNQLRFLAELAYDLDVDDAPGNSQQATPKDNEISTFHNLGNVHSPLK
T2 sequence (P07766 23-126 limits assumed): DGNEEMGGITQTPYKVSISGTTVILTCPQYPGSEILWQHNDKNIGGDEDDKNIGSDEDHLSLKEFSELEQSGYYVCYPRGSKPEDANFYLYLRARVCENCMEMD

Molecule | Kd (human GPC3 [3]) [nM] | Kd (human GPC3 [4]) [nM] | anti-tumor effect [5] | further results
B1 | – | – | – | Kd (human GPC3 [1]): 4.2 nM; koff (human GPC3 [1]): 0.0018 s⁻¹; kon (human GPC3 [1]): 430000 M⁻¹ s⁻¹
B2 | – | – | – | Kd [2]: 120 nM; koff [2]: 0.023 s⁻¹; kon [2]: 190000 M⁻¹ s⁻¹
B3 | 0.884 | 0.884 | – | –
B4 | – | – | – | Kd (human GPC3 [1]): 36 nM; koff (human GPC3 [1]): 0.011 s⁻¹; kon (human GPC3 [1]): 300000 M⁻¹ s⁻¹
B5 | 5.25 | 5.25 | – | –
B6 | 4.16 | 3.97 | – | –
B7 | 4.54 | 3.88 | – | –
B8 | – | – | evident anti-tumor effect | –
B9 | – | – | evident anti-tumor effect | –
B10 | – | – | evident anti-tumor effect | –
B11 | – | – | evident anti-tumor effect | –
